This assay concerns the target MPERp (HIV-1 (HXBc2 isolate)). Kind of assay: cross-linking; peptides (10 µg) in solution incubated with 20 µM BS3 for 1 h at 37°C, TCA precipitation, Tricine SDS-PAGE; detection by Western blot with MAb2F5 or by NBD fluorescence in the gel.

This is an account of results in publication PMC3528738.

Usually stoichiometry N stands for the number of molecules, sites or subunits per partner or assembly.

MPERp (peptide), sequence (P03375 656-683): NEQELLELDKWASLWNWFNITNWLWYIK

As for MPERp (peptide), the stoichiometry N stood at 2.
